According to patent US20120093811A1 (published 2012):
Numbering of substitutions follows the chain as printed. One block for each binder: values may come before it.

Experiments:
[1] = biological target: T1, Source 1 VEGF-D, mature dimeric recombinant human VEGF-D (CSIRO) (human, UniProt O43915 89-205); assay: SPR Protocol A, KD against that of Ig-1A
T1 construct: Whole entry named; also called Source 1 VEGF-D dimer; VEGF-D dimer
T1 sequence: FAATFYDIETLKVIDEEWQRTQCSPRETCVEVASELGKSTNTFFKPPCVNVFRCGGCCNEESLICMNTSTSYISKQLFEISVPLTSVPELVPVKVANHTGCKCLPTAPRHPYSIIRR
Method: (§1) Protocol A: The first assay format, Protocol A, used an assay system where IgGs were captured on a biosensor chip surface using an anti-human IgG (Fc) antibody and the Source 1 VEGF-D dimer run over the chip as the analyte in solution. This ensured that all IgG molecules were presented to the antigen in an active orientation.
(§2) The SPR protocol was slightly modified to compensate for the dimeric nature of the VEGF-D. Ig-1A or IgG variants were analyzed using an anti-human capture kit as described for Anti-human IgG (Fc) capture above, except that 1000 RU of the IgG or IgG variant was captured on the anti-human chip surface. […] The kinetics generated using this approach are accurate within the experimental parameters set. This standard assay protocol is best suited to studying 1:1 interactions and thus, may not be ideal for analyzing binding between the IgG variants and the VEGF-D dimer. In light of this, Protocol B was also used.

[2] = biological target: T1, Source 1 VEGF-D, mature dimeric …; assay: SPR Protocol A: IgG captured by anti-human Fc, VEGF-D dimer as analyte
Method: as §1, §2

[3] = biological target: T2, Source 2 VEGF-D, purified recombinant human VEGF-D monomer (R&D Systems, Catalog Number 622-VD/CF) (human, UniProt O43915 93-201); assay: cell-based or functional assay
T2 sequence: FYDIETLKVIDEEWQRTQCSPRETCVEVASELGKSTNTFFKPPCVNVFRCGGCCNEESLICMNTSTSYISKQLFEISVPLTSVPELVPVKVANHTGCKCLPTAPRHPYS

[4] = biological target: T1, Source 1 VEGF-D, mature dimeric …; assay: cell-based or functional assay
[5] = biological target: T3, VEGF-D (recombinant human; source not given) (human, UniProt O43915 89-205, limits assumed); assay: SPR (BIAcore), VEGF-D amine-coupled on CM5, purified scFv as analyte
T3 construct: also used here as target of IC50 values averaged over Source 1 and Source 2; also called vascular endothelial growth factor-D
T3 sequence: T1 sequence
Method: (§3) scFv variants were fully characterized using a BIAcore™ biosensor. All isolated scFv samples were purified as monomer peaks by anti-FLAG affinity chromatography followed by gel filtration chromatography. BIAcore™ analysis was performed by directly immobilizing VEGF-D on a CM5 surface using amine coupling, with the scFv run as the analyte. Analysis of binding was carried out using the BIAevaluation kinetic analysis software. All repeats were separate protein expressions and were performed at 25° C.
(§4) Clones F61, A63, AR7, AW61, CJ37, DI126 and DA18 were produced in large-scale expression cultures and purified by anti-FLAG affinity chromatography and gel filtration. The binding kinetics against VEGF-D were then measured using a BIAcore™ biosensor as described previously.

[6] = biological target: T3, VEGF-D (recombinant human; source not …); assay: SPR (BIAcore), KD against that of scFv 1A
Method: as §3, §4

[7] = biological target: T3, VEGF-D (recombinant human; source not …); assay: SPR (BIAcore) off-rate ranking of scFv clones
Method: Screening based on scFv binding properties involved surface plasmon resonance (SPR) measurements with a BIAcore™ biosensor. scFv variants were expressed in 200 μL E. coli cultures and the supernatants used to generate crude off-rate only kinetics, which were assessed “relative” to 1A, or other variants.

koff [7]: 0.00403 s⁻¹
B5: scFv clone K89 (scFv)
scFv: QVQLVQSGAEVKQPGASVKVSCKARGYTFTGYNMYWVRQAPGQGLEWMGYIDPYNGDTTYNQKFKGRVTMTTDTSTSTAYMELRSLRSDDTAVYYCARTSYYGGMDYWGRGTLVTVASGGGASGGGGSGGGGSDIVMTQTPLSSPVTLGQPASISCRSSQSLVHSNGNTYLHWLQQRPGQPPRLLIYKVSNRFSGVPDRFSGSGAGTDFTLKISRVEAEDVGVYYCSQSTHVPRTFGQGTKLEIKR

koff [7]: 0.00556 s⁻¹
B12: scFv clone Z23 (scFv)
scFv: B5 scFv with R25S, E46G, G131R
notes: G131R lies in the scFv linker

koff [7]: 0.00497 s⁻¹
B15: scFv clone Z49 (scFv)
scFv: B5 scFv with R25S, D89G

koff [7]: 0.0072 s⁻¹
B17: scFv clone Q30 (scFv)
scFv: B5 scFv with R25S, T112A

koff [7]: 0.0046 s⁻¹
B21: scFv clone W25 (scFv)
scFv: B5 scFv with R25S, E46G

koff [7]: 0.00611 s⁻¹
B22: scFv clone W36 (scFv)
scFv: B5 scFv with R25S, E46G

koff [7]: 0.00785 s⁻¹
B23: scFv clone P88 (scFv)
scFv: B5 scFv with R25S, T138I

koff [7]: 0.00794 s⁻¹
B24: scFv clone V37 (scFv)
scFv: B5 scFv with R25S, A40V

More lines, now with the values behind:

B1: humanized IgG antibody derived from clone HX28 (antibody, V domains shown)
VH: QVQLVQSGAKVKQPGASVKASCKASGYTFTGYNMYWVRQAPGQGLEWMGYIDPYSGDTTYNQKFKGRVTMTTDTSTSTAYMELRSLRSDDTAVYYCARTSYYGGMDYWGRGTLVTVAS
VL: DIVMTQTPLSSPVTLGQPASISCRSSQSLVHSNGNTYLHWLQQRPGQPPRLLIYKVSNRFSGVPGRFSGSGAGTDFTLKISRVEAEDVGVYYCSQSTHVPRTFGQGTKLEIKR
notes: IgG
Fold-improvement with respect to Ig-1A [1]: 1.8 fold | Kd [2]: 0.383 nM | koff [2]: 0.00014 s⁻¹ | kon [2]: 360000 M⁻¹ s⁻¹ | rank in the VEGFR-3-Ba/F3 bioassay [3]: 1 rank | rank in the VEGFR-3-Ba/F3 bioassay [4]: 1 rank

B2: scFv clone A63 (scFv)
scFv: B5 scFv with E10K, V20A, R25S
Kd [5]: 4.83 nM | koff [5]: 0.0072 s⁻¹ | kon [5]: 1.49e+06 M⁻¹ s⁻¹ | Fold-improvement with respect to clone 1A [6]: 2.7 fold | koff [7]: 0.00327 s⁻¹

B3: scFv clone CJ37 (scFv)
scFv: B5 scFv with R25S, E82K, Q238R
Kd [5]: 3.55 nM | koff [5]: 0.00995 s⁻¹ | kon [5]: 2.81e+06 M⁻¹ s⁻¹ | Fold-improvement with respect to clone 1A [6]: 3.7 fold | koff [7]: 0.00732 s⁻¹

B4: scFv clone I84 (scFv)
scFv: B5 scFv with R25S, A40V
koff [7]: 0.00738 s⁻¹

B6: scFv clone AW61 (scFv)
scFv: B5 scFv with R25S, V68A, E82K
Kd [5]: 4.23 nM | koff [5]: 0.00828 s⁻¹ | kon [5]: 1.96e+06 M⁻¹ s⁻¹ | Fold-improvement with respect to clone 1A [6]: 3.1 fold | koff [7]: 0.00222 s⁻¹

B7: scFv clone G75 (scFv)
scFv: B5 scFv with R25S, A40V, T112A
koff [7]: 0.0072 s⁻¹

B8: scFv clone H71 (scFv)
scFv: B5 scFv with K19R, R25S, T69A, S158T
koff [7]: 0.00653 s⁻¹

B9: scFv clone HU75 (scFv)
scFv: B5 scFv with R25S, E82K, S144G, Q238R
koff [7]: 0.00181 s⁻¹

B10: scFv clone H44 (scFv)
scFv: B5 scFv with R25S, E46G, G131R, V221M
notes: G131R lies in the scFv linker
koff [7]: 0.00657 s⁻¹

B11: scFv clone HH69 (scFv)
scFv: B5 scFv with E10K, V20A, R25S, N55S, S144G, Q238R
koff [7]: 0.00212 s⁻¹

B13: scFv clone AR74 (scFv)
scFv: B5 scFv with R25S, D73G, E82K, T99A
Kd [5]: 2.12 nM | koff [5]: 0.00379 s⁻¹ | kon [5]: 1.79e+06 M⁻¹ s⁻¹ | Fold-improvement with respect to clone 1A [6]: 6.2 fold | koff [7]: 0.00167 s⁻¹

B14: scFv clone HX28 (scFv)
scFv: B5 scFv with E10K, V20A, R25S, N55S, D198G
koff [7]: 0.00643 s⁻¹

B16: scFv clone I71 (scFv)
scFv: B5 scFv with K19R, R25S
koff [7]: 0.00661 s⁻¹

B18: scFv clone F61 (scFv)
scFv: B5 scFv with R25S, E82K
Kd [5]: 3.31 nM | koff [5]: 0.00899 s⁻¹ | kon [5]: 2.72e+06 M⁻¹ s⁻¹ | Fold-improvement with respect to clone 1A [6]: 4 fold | koff [7]: 0.00335 s⁻¹

B19: scFv clone HW78 (scFv)
scFv: B5 scFv with S77G, E82K
koff [7]: 0.00189 s⁻¹

B20: scFv clone HH41 (scFv)
scFv: B5 scFv with R25S, E82K, S165G
koff [7]: 0.00104 s⁻¹

B25: scFv clone DI26 (scFv)
scFv: B5 scFv with E10K, V20A, R25S, N55S
notes: also called DI126
Kd [5]: 3.12 nM | koff [5]: 0.0093 s⁻¹ | kon [5]: 2.98e+06 M⁻¹ s⁻¹ | Fold-improvement with respect to clone 1A [6]: 4.2 fold | koff [7]: 0.00361 s⁻¹
